# Measurements: patent US9580464B2, “Anti-inflammatory proteins and peptides and methods of preparation and use thereof” (ManukaMed Limited, priority 2012, dated 2017)
# B1: MGO-modified MRJP1: major royal jelly protein 1 (apalbumin 1) chemically modified by methylglyoxal (protein, UniProt O18330 20-432, looked up)
# Major royal jelly protein 1: NILRGESLNKSLPILHEWKFFDYDFGSDERRQDAILSGEYDYKNNYPSDIDQWHDKIFVTMLRYNGVPSSLNVISKKVGDGGPLLQPYPDWSFAKYDDCSGIVSASKLAIDKCDRLWVLDSGLVNNTQPMCSPKLLTFDLTTSQLLKQVEIPHDVAVNATTGKGRLSSLAVQSLDCNTNSDTMVYIADEKGEGLIVYHNSDDSFHRLTSNTFDYDPKFTKMTIDGESYTAQDGISGMALSPMTNNLYYSPVASTSLYYVNTEQFRTSDYQQNDIHYEGVQNILDTQSSAKVVSKSGVLFFGLVGDSALGCWNEHRTLERHNIRTVAQSDETLQMIASMKIKEALPHVPIFDRYINREYILVLSNKMQKMVNNDFNFDDVNFRIMNANVNELILNTRCENPDNDRTPFKISIHL
# modifications: methylglyoxal-modified
# notes: major royal jelly protein 1 (apalbumin 1) chemically modified by methylglyoxal
# Experiments:
# [1] = target: Cathepsin B from bovine spleen (Bos taurus, UniProt P07688); assay: Assay for Cathepsin B activity / inhibition (Z-Lys-pNP substrate, absorbance 330 nm); type: biochemical
# [2] = Anti-inflammatory activity of MGO-modified proteins (results not shown)
# Source text: As used herein, “anti-inflammatory capacity” is defined as the capacity to clinically reduce inflammation or the symptoms of inflammation in cellular tissue. Anti-inflammatory capacity may be determined using the phagocytosis inhibition assay (PIA) described in PCT/NZ PCT/NZ/2011/000271 or the DCFDA assay also described in PCT/NZ/2011/000271 or the anti-inflammatory capacity may also be determined by the inhibition of Cathepsin B as described in detail below.
# [3] = Table 6, MRJP1 derived synthetic peptides, MGO-modified
# [4] = Table 6, MRJP1 derived synthetic peptides, unmodified
# [5] = Table 8, MRJP5 derived synthetic peptides, MGO-modified
# [6] = Table 8, MRJP5 derived synthetic peptides, unmodified
# [7] = Table 1, peptides from C-terminus of MRJP1, 2 mM MGO-modified peptide
# [8] = Table 1, peptides from C-terminus of MRJP1, 2 mM unmodified peptide
# [9] = Table 9, additional synthetic peptides, MGO-modified
# [10] = Table 9, additional synthetic peptides, unmodified
# [11] = Table 3, peptides from C-terminus of MRJP3, 2 mM MGO-modified peptide
# [12] = Table 3, peptides from C-terminus of MRJP3, 2 mM unmodified peptide
Molecule,"Cathepsin B remaining activity (% of control) [1, 3]","Cathepsin B remaining activity (% of control) [1, 4]","Cathepsin B remaining activity (% of control) [1, 5]","Cathepsin B remaining activity (% of control) [1, 6]",also measured
Ac-CDR-OH (Ac-Cys-Asp-Arg-OH) [MRJP1 derived synthetic peptide],78.51 ± 2.51,120.52 ± 8.17,–,–,–
Ac-FDR-OH (Ac-Phe-Asp-Arg-OH) [MRJP1 derived synthetic peptide],44.78 ± 1.54,85.57 ± 3.51,–,–,–
Ac-FTK-OH (Ac-Phe-Thr-Lys-OH) [MRJP1 derived synthetic peptide],105.35 ± 5.73,148.84 ± 16.13,–,–,–
Ac-HNIR-OH [MRJP1 derived synthetic peptide],106.82 ± 3.02,171.58 ± 11.29,–,–,–
Ac-IDR-OH (Ac-Ile-Asp-Arg-OH) [MRJP5 derived synthetic peptide],–,–,81.75 ± 3.26,93.46 ± 12.24,–
Ac-KISI-OH [synthetic peptide derived from the C-terminus of MRJP1],–,–,–,–,"Cathepsin B remaining activity (% of control) [1, 7]: 92.82 ± 5.44; Cathepsin B remaining activity (% of control) [1, 8]: 133.11 ± 4.29"
"Ac-LIR-NH2 (Ac-Leu-Ile-Arg-NH2) [synthetic peptide derived from MRJP2, 4 (see Leu408), amidated C-terminus]",–,–,–,–,"Cathepsin B remaining activity (% of control) [1, 9]: 72.56; Cathepsin B remaining activity (% of control) [1, 10]: 65.39 ± 2.75"
"Ac-LIR-OH (Ac-Leu-Ile-Arg-OH) [synthetic peptide derived from MRJP2, 4 (see Leu408)]",–,–,–,–,"Cathepsin B inhibition after MGO modification ([1]; MGO-modified synthetic peptides): particularly potent activity; Cathepsin B remaining activity (% of control) [1, 9]: 0.07; Cathepsin B remaining activity (% of control) [1, 10]: 128.28 ± 2.50"
"Ac-LLK-NH2 (Ac-Leu-Leu-Lys-NH2) [synthetic peptide derived from MRJP1, 2, 4, amidated C-terminus]",–,–,–,–,"Cathepsin B remaining activity (% of control) [1, 9]: 136.90; Cathepsin B remaining activity (% of control) [1, 10]: 159.34 ± 2.34"
"Ac-LLK-OH (Ac-Leu-Leu-Lys-OH) [synthetic peptide derived from MRJP1, 2, 4]",–,–,–,–,"Cathepsin B remaining activity (% of control) [1, 9]: 147.60; Cathepsin B remaining activity (% of control) [1, 10]: 141.56 ± 13.90"
Ac-LQK-OH (Ac-Leu-Gln-Lys-OH) [MRJP5 derived synthetic peptide],–,–,90.15 ± 1.52,102.05 ± 10.32,–
"Ac-LVK-NH2 (Ac-Leu-Val-Lys-NH2) [synthetic peptide derived from MRJP3 (see Leu170), amidated C-terminus]",–,–,–,–,"Cathepsin B remaining activity (% of control) [1, 9]: 80.03; Cathepsin B remaining activity (% of control) [1, 10]: 92.71 ± 7.78"
Ac-LVK-OH (Ac-Leu-Val-Lys-OH) [synthetic peptide derived from MRJP3 (see Leu170)],–,–,–,–,"Cathepsin B remaining activity (% of control) [1, 9]: 80.84; Cathepsin B remaining activity (% of control) [1, 10]: 143.92 ± 3.15"
Ac-MDK-OH (Ac-Met-Asp-Lys-OH) [MRJP5 derived synthetic peptide],–,–,99.38 ± 1.63,109.67 ± 3.13,–
Ac-MDR-OH (Ac-Met-Asp-Arg-OH) [MRJP5 derived synthetic peptide],–,–,88.56 ± 2.14,107.34 ± 1.46,–
Ac-MHR-OH (Ac-Met-His-Arg-OH) [MRJP5 derived synthetic peptide],–,–,90.13 ± 17.28,101.26 ± 4.59,–
Ac-MQK-OH (Ac-Met-Gln-Lys-OH) [MRJP1 derived synthetic peptide],69.15 ± 4.87,121.24 ± 3.57,–,–,–
Ac-MTR-OH (Ac-Met-Thr-Arg-OH) [MRJP1 derived synthetic peptide],118.90 ± 5.62,126.30 ± 8.12,–,–,–
Ac-NQKN-OH [synthetic peptide derived from the C-terminus of MRJP2],–,–,–,–,"Cathepsin B remaining activity (% of control) ([1]; Table 2, peptides from C-terminus of MRJP2, 2 mM MGO-modified peptide): 102.36 ± 6.36; Cathepsin B remaining activity (% of control) ([1]; Table 2, peptides from C-terminus of MRJP2, 2 mM unmodified peptide): 282.39 ± 19.66"
Ac-PFKI-OH [synthetic peptide derived from the C-terminus of MRJP1],–,–,–,–,"Cathepsin B remaining activity (% of control) [1, 7]: 91.45 ± 0.11; Cathepsin B remaining activity (% of control) [1, 8]: 152.05 ± 13.20"
Ac-SKLH-OH [synthetic peptide derived from the C-terminus of MRJP3],–,–,–,–,"Cathepsin B remaining activity (% of control) [1, 11]: 67.57 ± 1.73; Cathepsin B remaining activity (% of control) [1, 12]: 146.35 ± 2.91"
Ac-SSKS-OH,–,–,–,–,"Cathepsin B remaining activity (% of control) [1, 11]: 107.49 ± 4.29; Cathepsin B remaining activity (% of control) [1, 12]: 118.71 ± 9.09"

Molecule,"Cathepsin B remaining activity (% of control) [1, 3]","Cathepsin B remaining activity (% of control) [1, 4]","Cathepsin B remaining activity (% of control) [1, 5]","Cathepsin B remaining activity (% of control) [1, 6]",also measured
Ac-TDK-OH (Ac-Thr-Asp-Lys-OH) [MRJP5 derived synthetic peptide],–,–,92.75 ± 2.41,100.51 ± 10.69,–
Ac-TNR-OH (Ac-Thr-Asn-Arg-OH) [MRJP5 derived synthetic peptide],–,–,91.72 ± 0.84,96.48 ± 2.03,–
Ac-VNR-OH (Ac-Val-Asn-Arg-OH) [MRJP5 derived synthetic peptide],–,–,68.49 ± 8.73,99.83 ± 3.40,–
Ac-YINR-OH [MRJP1 derived synthetic peptide],99.05 ± 7.78,93.14 ± 2.42,–,–,–
H-CDR-OH (H-Cys-Asp-Arg-OH) [MRJP1 derived synthetic peptide],96.01 ± 6.45,165.10 ± 0.38,–,–,–
H-FDR-OH (H-Phe-Asp-Arg-OH) [MRJP1 derived synthetic peptide],71.18 ± 2.22,174.56 ± 11.96,–,–,–
H-FTK-OH (H-Phe-Thr-Lys-OH) [MRJP1 derived synthetic peptide],76.59 ± 2.24,147.63 ± 0.70,–,–,–
H-HNIR-OH [MRJP1 derived synthetic peptide],103.38 ± 3.65,151.51 ± 0.62,–,–,–
H-IDR-OH (H-Ile-Asp-Arg-OH) [MRJP5 derived synthetic peptide],–,–,85.60 ± 5.32,98.02 ± 2.54,–
H-LQK-OH (H-Leu-Gln-Lys-OH) [MRJP5 derived synthetic peptide],–,–,95.26 ± 5.54,102.47 ± 4.27,–
H-MDK-OH (H-Met-Asp-Lys-OH) [MRJP5 derived synthetic peptide],–,–,70.62 ± 12.34,104.25 ± 2.73,–
H-MDR-OH (H-Met-Asp-Arg-OH) [MRJP5 derived synthetic peptide],–,–,74.46 ± 0.97,101.73 ± 2.37,–
H-MHR-OH (H-Met-His-Arg-OH) [MRJP5 derived synthetic peptide],–,–,80.66 ± 6.19,96.77 ± 9.26,–
H-MQK-OH (H-Met-Gln-Lys-OH) [MRJP1 derived synthetic peptide],99.48 ± 2.95,127.00 ± 0.93,–,–,–
H-MTR-OH (H-Met-Thr-Arg-OH) [MRJP1 derived synthetic peptide],104.39 ± 2.68,143.48 ± 2.33,–,–,–
H-TDK-OH (H-Thr-Asp-Lys-OH) [MRJP5 derived synthetic peptide],–,–,87.53 ± 3.26,103.18 ± 4.50,–
H-TNR-OH (H-Thr-Asn-Arg-OH) [MRJP5 derived synthetic peptide],–,–,91.86 ± 3.50,102.61 ± 5.34,–
H-VNR-OH (H-Val-Asn-Arg-OH) [MRJP5 derived synthetic peptide],–,–,82.63 ± 7.88,97.75 ± 10.62,–
H-YINR-OH [MRJP1 derived synthetic peptide],79.21 ± 2.12,142.33 ± 3.64,–,–,–
"MGO-modified bovine serine albumin: bovine serum albumin reacted with methylglyoxal, comparison protein [reference compound]",–,–,–,–,Anti-inflammatory activity [2]: no anti-inflammatory activity
B1,–,–,–,–,Anti-inflammatory activity [2]: enhanced anti-inflammatory properties
